Source: PMC11655445

How the values were obtained:
Details in all cases: glycan lost; control: WT PTTG1IP-GFP
[1] = anti-GFP Western blot of isolated EVs
[2] = median fluorescence intensity of GFP+ EVs
[3] = single-vesicle analysis, GFP+ EVs in conditioned media
[4] = anti-GFP Western blot of cell lysates

B1: PTTG1IP (pituitary tumor-transforming gene 1 protein-interacting protein): 2NQ (protein)
parent chain: MAPGVARGPTPYWRLRLGGAALLLLLIPVAAAQEPPGAACSQNTNKTCEECLKNVSCLWCNTNKACLDYPVTSVLPPASLCKLSSARWGVCWVNFEALIITMSVVGGTLLLGIAICCCCCCRRKRSRKPDRSEEKAMREREERRIRQEERRAEMKTRHDEIRKKYGLFKEENPYARFENN
[1]
  localisation_or_trafficking: decreases
[2]
  localisation or trafficking, percent of wt: 48%
[3]
  localisation_or_trafficking, other: % GFP+ vesicles: decreases, 27.2 vs 84
[4]
  expression_or_secretion: no change

B2: PTTG1IP (pituitary tumor-transforming gene 1 protein-interacting protein): N54Q (protein)
parent chain: MAPGVARGPTPYWRLRLGGAALLLLLIPVAAAQEPPGAACSQNTNKTCEECLKNVSCLWCNTNKACLDYPVTSVLPPASLCKLSSARWGVCWVNFEALIITMSVVGGTLLLGIAICCCCCCRRKRSRKPDRSEEKAMREREERRIRQEERRAEMKTRHDEIRKKYGLFKEENPYARFENN
[3]
  localisation_or_trafficking, other: % GFP+ vesicles: decreases, 45.7 vs 84
[4]
  expression_or_secretion: no change

B3: PTTG1IP (pituitary tumor-transforming gene 1 protein-interacting protein): N45Q (protein)
parent chain: MAPGVARGPTPYWRLRLGGAALLLLLIPVAAAQEPPGAACSQNTNKTCEECLKNVSCLWCNTNKACLDYPVTSVLPPASLCKLSSARWGVCWVNFEALIITMSVVGGTLLLGIAICCCCCCRRKRSRKPDRSEEKAMREREERRIRQEERRAEMKTRHDEIRKKYGLFKEENPYARFENN
[3]
  localisation_or_trafficking, other: % GFP+ vesicles: decreases, 43.6 vs 84
[4]
  expression_or_secretion: no change
